# In patent US20220356267A1 (JIANGSU KANION PHARMACEUTICAL, published 2022):
# T1: recombinant human CD73 protein (ecto-5'-nucleotidase), expressed by the applicant, C-terminal 6x His tag (human, UniProt P21589 27-547)
# T1 sequence: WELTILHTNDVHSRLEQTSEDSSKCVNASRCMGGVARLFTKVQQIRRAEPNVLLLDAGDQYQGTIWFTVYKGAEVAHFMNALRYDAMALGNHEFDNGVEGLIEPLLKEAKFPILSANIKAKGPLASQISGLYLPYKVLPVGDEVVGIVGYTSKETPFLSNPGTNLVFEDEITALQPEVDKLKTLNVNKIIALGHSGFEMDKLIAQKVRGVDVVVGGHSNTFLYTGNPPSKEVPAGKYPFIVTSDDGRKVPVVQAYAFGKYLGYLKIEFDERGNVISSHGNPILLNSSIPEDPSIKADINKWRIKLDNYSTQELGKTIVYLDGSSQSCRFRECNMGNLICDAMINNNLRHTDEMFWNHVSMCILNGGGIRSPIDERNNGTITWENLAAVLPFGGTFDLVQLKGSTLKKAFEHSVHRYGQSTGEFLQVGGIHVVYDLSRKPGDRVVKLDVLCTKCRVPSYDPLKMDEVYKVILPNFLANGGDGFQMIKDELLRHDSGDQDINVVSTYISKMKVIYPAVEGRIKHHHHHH
# T2: CD73 on A549 cells (UniProt P21589 27-549, limits assumed)
# T2 sequence (looked up): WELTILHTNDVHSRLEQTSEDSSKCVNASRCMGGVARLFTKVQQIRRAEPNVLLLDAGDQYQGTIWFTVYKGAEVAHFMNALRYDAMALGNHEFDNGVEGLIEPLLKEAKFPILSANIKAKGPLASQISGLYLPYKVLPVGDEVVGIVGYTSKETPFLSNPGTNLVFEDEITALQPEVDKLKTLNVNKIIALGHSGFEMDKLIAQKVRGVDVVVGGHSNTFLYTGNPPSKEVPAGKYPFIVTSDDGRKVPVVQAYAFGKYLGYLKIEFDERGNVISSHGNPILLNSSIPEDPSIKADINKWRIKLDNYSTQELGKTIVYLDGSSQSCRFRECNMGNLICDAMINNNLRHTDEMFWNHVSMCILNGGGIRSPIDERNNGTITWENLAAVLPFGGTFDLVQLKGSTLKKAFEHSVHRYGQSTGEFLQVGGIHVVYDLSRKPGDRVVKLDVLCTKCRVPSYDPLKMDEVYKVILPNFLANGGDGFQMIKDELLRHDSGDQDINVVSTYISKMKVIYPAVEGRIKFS
# B1: anti-CD73 monoclonal antibody F2-2 (antibody, V domains shown)
# VH: VQLQESGPGLVKPSQSLSLTCTVTGHSITSDYVWNWIRQFPGNKLEWMGYISYSGIIKYNPSLKSRISITRDTSKNQFFLQLNSVTTEDTATYYCAGDEYFWFAYWGQGTTVTVSS
# VL: DIQMTQSPSSMYASLGERVTITCKASQDIKSYLSWYQQKPWKSPKTLIYYATNLADGVPSRFSGSGSGQDYSLTISSLESDDTATYYCLQHGESPYTFGGGTKLEIK
# notes: Mouse hybridoma antibody of the IgG type, purified from ascitic fluid
# B2: anti-CD73 monoclonal antibody 06-6 (antibody, V domains shown)
# VH: QVQLQQSGPELVKPGASVRISCKASGYTFADYFMHWVRLRPGQGLEWIGWIYPGYVNIKYNEKFKGKATLTADKSSSTAYMQLSSLTSEDSAVYFCARGEDYDSAMDYWGQGTSVTVSS
# VL: GVVMTQTPLSLPVSLGDQASISCRSSQSLVHSNGNTYLHWYLQKPGQSPKLLIYKVSNRFSGVPDRFSGSGSGTDFTLKISRVEAEDLGVYFCSQSTHVPPWTFGGGTKLEIK
# notes: as for B1
# B3: anti-CD73 monoclonal antibody 9-4 (antibody, V domains shown)
# VH: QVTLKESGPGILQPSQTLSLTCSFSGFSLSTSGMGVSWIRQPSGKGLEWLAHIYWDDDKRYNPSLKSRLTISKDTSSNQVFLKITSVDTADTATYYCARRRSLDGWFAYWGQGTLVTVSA
# VL: DIQMTQSPAALSASVGETVTITCRASGNIHNYLAWYQQKQGKSPQLLVYNTQILADGVPSRFSGSGSGTQYSLKINSLQPEDFGTFYCQHFWDSPWTFGGGTKMEIK
# notes: as for B1
# B4: anti-CD73 monoclonal antibody E1-B6 (antibody, V domains shown)
# VH: VKLQESGAELARPGASVKLSCKASGYTFTDYYINWVKQRTGQGLEWIGETYPGNGNTYYHEKFKGKATLTADRSSSTAYMQLSSLTSEDSAVYFCARGTYYGSSEYFDYWGQGTTVTVSS
# VL: DIVMTQSPKFMSTSVGDRVSITCKASQNVGTAVAWYQQRPGQSPKLLIYSASNRNTGVPDRFTGSGSGTDFTLTISNMQSEDLADYFCQQYSSYIFTFGSGTKLEIN
# notes: as for B1
# B5: anti-CD73 monoclonal antibody 81-2-2 (antibody, V domains shown)
# VH: QVQLQQPGAELVKPGASVKLSCKASGYTFTSYWMHWVKQRPGQGLEWIGEINPSNGRTNYNEKFKSKATLTVDKSSSTAYMQLSSLTSEDSAVYYCARRGTSGNFFDYWGQGTTLTVSS
# VL: DIKMTQSPSSMYASLGERVTITCKASQDINTYLSWFQQKPGKSPKTLIYRANRLVDGVPSRFSGSGSGQDYSLTISSLEYEDMGIYYCLQFDEFPYTFGGGTKLEIK
# notes: as for B1
# Experiments:
# [1] = molecular target: T1, recombinant human CD73 protein …; test: cell-based or functional assay
# CD73 on A549 cells = molecular target: T2, CD73 on A549 cells; test: cell-based or functional assay
# [2] = molecular target: T1, recombinant human CD73 protein …; test: SPR, Biacore T200, antibody captured by anti-mouse Fc IgG, human CD73 injected, 25 °C, 1:1 fit
# Method: (§1) Anti-mouse Fc IgG was fixated on a CMS sensor chip by amine coupling in order to capture the antibody under test with the coupled anti-mouse Fc IgG. A series of human CD73 proteins having a predetermined concentration gradient were then injected, before the pH 1.7 glycine-HCl regeneration testing system that came with the reagent kit was used.
# (§2) HBS-EP+ (10 mM HEPES; pH7.4, 150 mM NaCl; 3 mM EDTA; and 0.05% P20) was used as the running buffer, and the testing temperature was 25° C.
# (§3) The binding constant (Ka), dissociation rate constant (Kd), and equilibrium constant (KD) were calculated with the Biacore T200 evaluation software by combining the model fitting data at a 1:1 ratio.
# [3] = molecular target: T1, recombinant human CD73 protein …; test: SPR (Biacore T200), antibody captured on anti-mouse Fc IgG chip, human CD73 injected in a concentration series, 25 C, 1:1 fit; the sheet prints E-4 where the 1st table, row 5, column 4 prints 10^-5; E-4 agrees with the printed ka 4.764E+5 and KD 8.129E-10
# Method: as §1, §2, §3
Binder,"EC50 (µg/mL), Biochemical level, inhibition of the enzyme activity of CD73 [1] [µg/mL]","EC50 (µg/mL), Cell level (A549 cells), inhibition of the enzyme activity of CD73 (CD73 on A549 cells) [µg/mL]",Kd [2] [pM],koff [2] [s⁻¹],kon [2] [M⁻¹ s⁻¹],koff [3] [s⁻¹]
B1,0.109,0.0397,31.8,1.71e-05,538000,
B2,0.206,0.147,753,0.000183,242000,
B3,0.211,0.175,452,0.00015,332000,
B4,0.232,0.182,813,0.000387,476000,0.000387
B5,0.239,0.213,490,0.000104,212000,
